From publication PMC8172837
Where “and” joins values, the source holds several entries; their conditions need not be identical. Equal values may be shown once.

Assays:
[1] = target: Hexameric Aβ from CHO cells transfected with C99 carrying the Arctic (E22G) FAD mutation (human); assay: SDS-PAGE and western blot of oligomer bands; CHO cell lysates (4% SDS lysis buffer, heated 10 min at 70 °C with 50 mM DTT) and lyophilised culture media 48 h after transfection; 4-12% NuPAGE bis-tris gels; detected with anti-Aβ W0-2
[2] = target: Hexameric Aβ from CHO cells transfected with C99 carrying the Italian (E22K) FAD mutation (human); assay: as above
[3] = target: Aβ in the dimer and trimer bands of the culture media of C99 transfected CHO cells (isoform not determined) (human); assay: as above
[4] = target: Hexameric Aβ from CHO cells transfected with C99 carrying the Flemish (A21G) FAD mutation (human); assay: as above
[5] = target: vC42, assembly-impaired variant of Aβ42 (F19S, G37D) from transfected CHO cells (human); assay: as above
[6] = target: Hexameric Aβ from CHO cells transfected with C99 carrying the Iowa (D23N) FAD mutation (human); assay: as above
[7] = target: C99-derived hexameric Aβ42 (cell-derived amyloid-β 42 from CHO cells transfected with C99) (human) (UniProt P05067); assay: as above
[8] = target: C99-derived hexameric Aβ42 (cell-derived amyloid-β 42 from CHO cells transfected with C99) (human) (UniProt P05067); assay: GELFrEE fractionation by size and western blot; Aβ immunoprecipitated with W0-2 from media, boiled at 95 °C with DTT, separated on the GELFrEE 8100 system; fractions blotted with W0-2; hexamer in fraction 5
[9] = target: Hexameric Aβ from CHO cells transfected with C99 carrying the Dutch (E22Q) FAD mutation (human); assay: SDS-PAGE and western blot of oligomer bands; CHO cell lysates (4% SDS lysis buffer, heated 10 min at 70 °C with 50 mM DTT) and lyophilised culture media 48 h after transfection; 4-12% NuPAGE bis-tris gels; detected with anti-Aβ W0-2

Q: For “Hexameric Aβ from CHO cells transfected with C99 carrying the Arctic (E22G) FAD mutation (peptide)”, which stoichiometry N [1] is on record?
A: 6

Q: For “Hexameric Aβ from CHO cells transfected with C99 carrying the Italian (E22K) FAD mutation (peptide)”, which stoichiometry N [2] is on record?
A: 6

Q: With “Aβ in the dimer and trimer bands of the culture media of C99 transfected CHO cells (isoform not determined) (peptide)” as the substance, how does the stoichiometry N [3] read?
A: 2 and 3

Q: For “Hexameric Aβ from CHO cells transfected with C99 carrying the Flemish (A21G) FAD mutation (peptide)”, which stoichiometry N [4] is on record?
A: 6

Q: “vC42, assembly-impaired variant of Aβ42 (F19S, G37D) from transfected CHO cells (peptide)” was tested. Which stoichiometry N [5] did it give?
A: 2 and 3

Q: “Hexameric Aβ from CHO cells transfected with C99 carrying the Iowa (D23N) FAD mutation (peptide)” was tested. Which stoichiometry N [6] did it give?
A: 6

Q: What does the source list for “C99-derived hexameric Aβ42 (cell-derived amyloid-β 42 from CHO cells transfected with C99) (from UniProt P05067 672-770) (peptide)”?
A: stoichiometry N [7]: 6; stoichiometry N [8]: 6

Q: Which stoichiometry N [9] does the source give for “Hexameric Aβ from CHO cells transfected with C99 carrying the Dutch (E22Q) FAD mutation (peptide)” here?
A: 6
